Data as given in patent publication US20170368189.

Legend:
[1] = molecular target: T1, Permanent Lys26 CNP-38 PEG4x10 kDa conjugate 12g (not fully specified)
T1 chain: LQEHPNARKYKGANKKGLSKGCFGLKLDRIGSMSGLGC

[2] = molecular target: T2, Permanent N-terminal CNP-34 PEG 5 kDa conjugate 14e (not fully specified)
T2 chain: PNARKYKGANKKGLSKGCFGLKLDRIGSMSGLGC

[3] = molecular target: T3, Permanent N-terminal CNP-38 PEG 5 kDa conjugate 15e (not fully specified)
T3 chain: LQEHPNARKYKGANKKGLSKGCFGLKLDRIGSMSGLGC

Measured: half life norm. [h] (in vitro NEP digest)

B1: recombinant human Neutral Endopeptidase (NEP) (protein)
chain: YDDGICKSSDCIKSAARLIQNMDATTEPCTDFFKYACGGWLKRNVIPETSSRYGNFDILRDELEVVLKDVLQEPKTEDIVAVQKAKALYRSCINESAIDSRGGEPLLKLLPDIYGWPVATENWEQKYGASWTAEKAIAQLNSKYGKKVLINLFVGTDDKNSVNHVIHIDQPRLGLPSRDYYECTGIYKEACTAYVDFMISVARLIRQEERLPIDENQLALEMNKVMELEKEIANATAKPEDRNDPMLLYNKMTLAQIQNNFSLEINGKPFSWLNFTNEIMSTVNISITNEEDVVVYAPEYLTKLKPILTKYSARDLQNLMSWRFIMDLVSSLSRTYKESRNAFRKALYGTTSETATWRRCANYVNGNMENAVGRLYVEAAFAGESKHVVEDLIAQIREVFIQTLDDLTWMDAETKKRAEEKALAIKERIGYPDDIVSNDNKLNNEYLELNYKEDEYFENIIQNLKFSQSKQLKKLREKVDKDEWISGAAVVNAFYSSGRNQIVFPAGILQPPFFSAQQSNSLNYGGIGMVIGHEITHGFDDNGRNFNKDGDLVDWWTQQSASNFKEQSQCMVYQYGNFSWDLAGGQHLNGINTLGENIADNGGLGQAYRAYQNYIKKNGEEKLLPGLDLNHKQLFFLNFAQVWCGTYRPEYAVNSIKTDVHSPGNFRIIGTLQNSAEFSEAFHCRKNSYMNPEKKCRVW
Almost no proteolysis after 4 days.: all assays above
